Molecular target: human Fn14 (full length) on cells (human) (UniProt Q9NP84)
Assay: cell-based or functional assay

human Fn14 (full length) on cells (human), sequence (Q9NP84 28-129): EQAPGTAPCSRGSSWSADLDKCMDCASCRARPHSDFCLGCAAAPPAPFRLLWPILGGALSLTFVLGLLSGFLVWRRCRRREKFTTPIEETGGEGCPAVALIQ

- ICAM-1 MFI on HRMC, 250 ng/mL rhTWEAK, mAb 0.1 µg/mL: 9620 MFI
B1: ITEM-4 commercial anti-Fn14 monoclonal antibody (antibody, from another filing, V domains shown)
VH: QVQLQQSGPELVKPGASVKMSCKASGYTFTDFIIAWVKQRTGQGLEWIGEIYPGTGRTYYSEKFRGKATLTADKSSNTAYMQLSSLTSVDSAVYFCARRTIYYDYDGDYWGQGTTLTVSS
VL: DIVMTQAAFSNPVTLGTSASISCRSSKSLLHSNGITYLYWYLQKPGQSPQLLIYQMSNLASGVPDRFSSSGSGTDFTLRISRVEAEDVGVYYCAHNLELPWTFGGGTKLELK

Source: patent US20220289857A1
